Paper PMC10412584, “Molecular reshaping of phage-displayed Interleukin-2 at beta chain receptor interface to obtain potent super-agonists with improved developability profiles” (Communications Biology, 2023)

T1: recombinant fusion protein comprising human IL-2R beta subunit extracellular domain and mouse IgG2a Fc (human, UniProt P14784 27-240)
T1 construct: human IL-2 receptor beta subunit (CD122), extracellular domain; also called IL-2R beta/mFc; IL-2R beta ECD/mouse IgG2a Fc
T1 sequence (looked up): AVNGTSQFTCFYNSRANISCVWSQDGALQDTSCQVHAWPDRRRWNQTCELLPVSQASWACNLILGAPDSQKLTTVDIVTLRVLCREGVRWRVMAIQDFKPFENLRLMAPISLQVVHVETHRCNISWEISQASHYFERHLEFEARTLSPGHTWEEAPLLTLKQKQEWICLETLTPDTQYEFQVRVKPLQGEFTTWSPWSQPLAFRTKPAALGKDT


Target: T1, recombinant fusion protein comprising …
Test: ELISA; polyvinyl chloride plates coated with IL-2R beta ECD/mouse IgG2a Fc at 10 µg/mL in PBS; Fc-fusion proteins diluted in M-PBS, 1 h at RT; detected with anti-human IgG-HRP
Settings: both partners purified

Row | Binder | binding result
1 | 81DPQDLIE87 + I92L(K35E)/Fc (Fc fusion, human, UniProt P60568 21-153, looked up, human interleukin-2 whose segment 81-87 reads DPQDLIE, with I92L; the first two aa (Ala-Pro) are present in the Fc constructs; source: HEK-293T adapted to suspension, transient transfection, purified from supernatant (protein A)) APTSSSTKKTQLQLEHLLLDLQMILNGINNYKNPELTRMLTFKFYMPKKATELKHLQCLEEELKPLEEVLNLAQSKNFHLDPQDLIENINVLVLELKGSETTFMCEYADETATIVEFLNRWITFCQSIISTLT | binds
2 | 80VPPEDLIA87 + I92L(K35E)/Fc (Fc fusion, human, UniProt P60568 21-153, looked up, the first two aa (Ala-Pro) are present in the Fc constructs; source: HEK-293T adapted to suspension, transient transfection, purified from supernatant (protein A)) APTSSSTKKTQLQLEHLLLDLQMILNGINNYKNPELTRMLTFKFYMPKKATELKHLQCLEEELKPLEEVLNLAQSKNFHVPPEDLIANINVLVLELKGSETTFMCEYADETATIVEFLNRWITFCQSIISTLT | binds
3 | H9(K35E)/Fc in which F92 was replaced by the original Ile (Fc fusion, human, UniProt P60568 21-153, looked up, human interleukin-2 with the H9 mutations except that residue 92 is the original Ile; the first two aa (Ala-Pro) are present in the Fc constructs; also called F92I-containing protein; source: HEK-293T adapted to suspension, transient transfection, purified from supernatant (protein A)) APTSSSTKKTQLQLEHLLLDLQMILNGINNYKNPELTRMLTFKFYMPKKATELKHLQCLEEELKPLEEVLNLAQSKNFHFDPRDVVSNINVIVLELKGSETTFMCEYADETATIVEFLNRWITFCQSIISTLT | binds
4 | 80VPPEDLIE87 + I92L(K35E)/Fc (Fc fusion, human, UniProt P60568 21-153, looked up, the first two aa (Ala-Pro) are present in the Fc constructs; also called variant 2B further optimized by incorporating S87E; source: HEK-293T adapted to suspension, transient transfection, purified from supernatant (protein A)) APTSSSTKKTQLQLEHLLLDLQMILNGINNYKNPELTRMLTFKFYMPKKATELKHLQCLEEELKPLEEVLNLAQSKNFHVPPEDLIENINVLVLELKGSETTFMCEYADETATIVEFLNRWITFCQSIISTLT | binds
5 | H9(K35E)/Fc in which F92 was replaced by the phage-selected Leu (Fc fusion, human, UniProt P60568 21-153, looked up, human interleukin-2 with the H9 mutations except that residue 92 is Leu; the first two aa (Ala-Pro) are present in the Fc constructs; also called F92L-containing protein; source: HEK-293T adapted to suspension, transient transfection, purified from supernatant (protein A)) APTSSSTKKTQLQLEHLLLDLQMILNGINNYKNPELTRMLTFKFYMPKKATELKHLQCLEEELKPLEEVLNLAQSKNFHFDPRDVVSNINVLVLELKGSETTFMCEYADETATIVEFLNRWITFCQSIISTLT | binds
6 | 80FDPHDVVE87 + I92L + V93L(K35E)/Fc (Fc fusion, human, UniProt P60568 21-153, looked up, the first two aa (Ala-Pro) are present in the Fc constructs; also called fusion protein derived from phage clone 1A; source: HEK-293T adapted to suspension, transient transfection, purified from supernatant (protein A)) APTSSSTKKTQLQLEHLLLDLQMILNGINNYKNPELTRMLTFKFYMPKKATELKHLQCLEEELKPLEEVLNLAQSKNFHFDPHDVVENINVLLLELKGSETTFMCEYADETATIVEFLNRWITFCQSIISTLT | binds
7 | 80FDPADVVE87 + I92L(K35E)/Fc (Fc fusion, human, UniProt P60568 21-153, looked up, the first two aa (Ala-Pro) are present in the Fc constructs; source: HEK-293T adapted to suspension, transient transfection, purified from supernatant (protein A)) APTSSSTKKTQLQLEHLLLDLQMILNGINNYKNPELTRMLTFKFYMPKKATELKHLQCLEEELKPLEEVLNLAQSKNFHFDPADVVENINVLVLELKGSETTFMCEYADETATIVEFLNRWITFCQSIISTLT | binds
8 | 80FDPEDVVE87 + I92L(K35E)/Fc (Fc fusion, human, UniProt P60568 21-153, looked up, the first two aa (Ala-Pro) are present in the Fc constructs; source: HEK-293T adapted to suspension, transient transfection, purified from supernatant (protein A)) APTSSSTKKTQLQLEHLLLDLQMILNGINNYKNPELTRMLTFKFYMPKKATELKHLQCLEEELKPLEEVLNLAQSKNFHFDPEDVVENINVLVLELKGSETTFMCEYADETATIVEFLNRWITFCQSIISTLT | binds
9 | 81DPQDLIE87(K35E)/Fc (Fc fusion, human, UniProt P60568 21-153, looked up, human interleukin-2 whose segment 81-87 reads DPQDLIE; the first two aa (Ala-Pro) are present in the Fc constructs; source: HEK-293T adapted to suspension, transient transfection, purified from supernatant (protein A)) APTSSSTKKTQLQLEHLLLDLQMILNGINNYKNPELTRMLTFKFYMPKKATELKHLQCLEEELKPLEEVLNLAQSKNFHLDPQDLIENINVIVLELKGSETTFMCEYADETATIVEFLNRWITFCQSIISTLT | binds
10 | 81VPEDLIE87(K35E)/Fc (Fc fusion, human, UniProt P60568 21-153, looked up, human interleukin-2 whose segment 81-87 reads VPEDLIE; the first two aa (Ala-Pro) are present in the Fc constructs; source: HEK-293T adapted to suspension, transient transfection, purified from supernatant (protein A)) APTSSSTKKTQLQLEHLLLDLQMILNGINNYKNPELTRMLTFKFYMPKKATELKHLQCLEEELKPLEEVLNLAQSKNFHLVPEDLIENINVIVLELKGSETTFMCEYADETATIVEFLNRWITFCQSIISTLT | binds
11 | 81VPEDLIE87 + I92L(K35E)/Fc (Fc fusion, human, UniProt P60568 21-153, looked up, human interleukin-2 whose segment 81-87 reads VPEDLIE, with I92L; the first two aa (Ala-Pro) are present in the Fc constructs; source: HEK-293T adapted to suspension, transient transfection, purified from supernatant (protein A)) APTSSSTKKTQLQLEHLLLDLQMILNGINNYKNPELTRMLTFKFYMPKKATELKHLQCLEEELKPLEEVLNLAQSKNFHLVPEDLIENINVLVLELKGSETTFMCEYADETATIVEFLNRWITFCQSIISTLT | binds

Target: T1, recombinant fusion protein comprising …
Test: SPR; Biacore T200; IL-2R beta ECD/mouse IgG2a Fc amine-coupled to a CM5 chip; Fc-fusion proteins 1-800 nmol/L injected at 15 µL/min in PBS with 0.05% Tween 20; single-cycle mode; global fit to the 1:1 model
Settings: both partners purified

Row | Binder | fold decrease of KD against IL-2(K35E)/Fc [fold] | koff [s⁻¹]
12 | H9(K35E)/Fc (Fc fusion, human, UniProt P60568 21-153, looked up, human interleukin-2 with the mutations of H9 superkine and K35E; the first two aa (Ala-Pro) are present in the Fc constructs; Heavily aggregated in SEC; also called H9(K35)/Fc; fusion protein based on H9 superkine; source: HEK-293T adapted to suspension, transient transfection, purified from supernatant (protein A)) APTSSSTKKTQLQLEHLLLDLQMILNGINNYKNPELTRMLTFKFYMPKKATELKHLQCLEEELKPLEEVLNLAQSKNFHFDPRDVVSNINVFVLELKGSETTFMCEYADETATIVEFLNRWITFCQSIISTLT | ~25 | ~0.0003
